The results in this text go back to paper PMC2859858.

The target of this experiment is ProLabel-LEDGF fusion protein (UniProt O75475). Description: chemiluminescent co-IP assay. As to conditions: 293T cells, 48 h after transfection; parent: est. 4700; read off a plot.
Sequence of UniProt O75475 (O75475 whole entry, the tested form may be a part): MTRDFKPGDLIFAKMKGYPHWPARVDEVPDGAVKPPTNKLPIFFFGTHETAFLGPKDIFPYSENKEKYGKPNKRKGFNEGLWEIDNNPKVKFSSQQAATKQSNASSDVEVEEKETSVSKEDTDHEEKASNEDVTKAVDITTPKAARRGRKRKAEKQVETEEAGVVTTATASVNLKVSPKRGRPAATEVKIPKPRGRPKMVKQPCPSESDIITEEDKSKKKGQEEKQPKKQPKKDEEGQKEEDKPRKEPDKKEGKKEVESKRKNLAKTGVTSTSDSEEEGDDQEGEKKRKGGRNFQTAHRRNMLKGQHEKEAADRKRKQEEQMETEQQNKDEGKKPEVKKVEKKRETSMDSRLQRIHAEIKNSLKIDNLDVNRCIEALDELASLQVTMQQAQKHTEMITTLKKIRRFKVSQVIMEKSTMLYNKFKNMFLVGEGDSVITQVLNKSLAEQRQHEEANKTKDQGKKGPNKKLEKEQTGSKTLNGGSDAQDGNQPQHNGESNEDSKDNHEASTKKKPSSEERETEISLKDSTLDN
Take AcGFP1-IN wild type E170A; H171A: the response worked out at 50 RLU.
As for AcGFP1-IN wild type E170A; K173A, the figure is 1300 RLU; as for AcGFP1-IN wild type H171A; K173A, 250 RLU; as for AcGFP1-IN wild type H171A; L172A, 130 RLU.
